Consider one molecule from PMC11876641, “Ephrin A1 functions as a ligand of EGFR to promote EMT and metastasis in gastric cancer” (The EMBO Journal, 2025).

The assay deals with T1, EGFR protein (UniProt P00533 25-645).
T1 construct: EGFR; source: bought: R&D Systems (1095-ER)
The assay can be described thus: pull-down; Fc fusion protein and its partner incubated in lysis buffer overnight at 4 °C; Protein A/G magnetic beads; both orientations (N-EGFR-Fc with Ephrin A1; Ephrin A1-Fc with EGFR protein). To be noted: both partners purified.

B1: Ephrin A1-Fc protein (Fc fusion, UniProt P20827 19-182, looked up)
chain: DRHTVFWNSSNPKFRNEDYTIHVQLNDYVDIICPHYEDHSVADAAMEQYILYLVEHEEYQLCQPQSKDQVRWQCNRPSAKHGPEKLSEKFQRFTPFTLGKEFKEGHSYYYISKPIHQHEDRCLRLKVTVSGKITHSPQAHDNPQEKRLAADDPEVRVLHSIGHS
notes: Ephrin A1; source: bought: R&D Systems (6417-A1)
Turning to B1, the binding result is listed as “binds”.
